This note sets out measurements from patent publication US20260232827A1 (Zymeworks, published 2026).

Experiment [1] has as its target T1, cynomolgus monkey NaPi2b (cynomolgus monkey, UniProt O95436 1-690 (human entry)).
T1 construct: also called Cyno NaPi2b; Cy NaPi2b
T1 chain: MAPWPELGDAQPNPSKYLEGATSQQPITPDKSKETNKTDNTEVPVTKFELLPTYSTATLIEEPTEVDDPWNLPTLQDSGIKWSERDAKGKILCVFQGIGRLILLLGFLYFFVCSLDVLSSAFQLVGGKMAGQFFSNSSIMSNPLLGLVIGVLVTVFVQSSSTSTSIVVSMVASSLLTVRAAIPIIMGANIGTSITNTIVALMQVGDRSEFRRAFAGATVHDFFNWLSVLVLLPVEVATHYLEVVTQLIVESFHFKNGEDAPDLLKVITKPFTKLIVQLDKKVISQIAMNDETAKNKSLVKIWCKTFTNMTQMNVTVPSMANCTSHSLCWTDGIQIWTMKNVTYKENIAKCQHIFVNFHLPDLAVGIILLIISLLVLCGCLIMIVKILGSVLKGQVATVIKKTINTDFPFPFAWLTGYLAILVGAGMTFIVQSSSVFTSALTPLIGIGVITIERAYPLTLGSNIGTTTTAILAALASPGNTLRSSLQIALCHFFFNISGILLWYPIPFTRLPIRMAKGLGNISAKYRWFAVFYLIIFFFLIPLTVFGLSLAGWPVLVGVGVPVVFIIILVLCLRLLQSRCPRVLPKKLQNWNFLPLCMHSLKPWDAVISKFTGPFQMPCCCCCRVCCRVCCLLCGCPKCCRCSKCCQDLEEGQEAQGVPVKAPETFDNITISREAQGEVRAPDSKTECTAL
In words: flow cytometry, HEK293-6e cells transfected with cynomolgus NaPi2b; apparent Kd. (Flow cytometry measures light scatter and fluorescence of single cells or particles in a stream.)
Method: (§1) Briefly, HEK293-6e cells were transfected for ~24 hours to transiently express human NaPi2b, cynomolgus or mouse NaPi2b, at 1 μg of DNA per 1 million cells. Following transfection, 50,000 cells per well were seeded in V-bottom 96-well plates and incubated with 200 nM of primary antibody for 18-24 hours at 4° C. to prevent internalization. […] Following staining and washing, fluorescence was detected by flow cytometry on BD LSRFortessa™ Cell Analyzer (BD Biosciences, Franklin Lake, NJ) with 10,000 minimum events collected per well. The AF647/APC-A GeoMean (fluorescence signal geometric mean, proportional to anti-Human AF647 binding) was calculated for the live singlet cell population for each primary antibody using FlowJo™ v8 software (BD Biosciences, Franklin Lake, NJ). The Bmax and Kd of each primary antibody were calculated using GraphPad Prism Version 9 (GraphPad Software, San Diego, CA)

The target in experiment [2] is T1, cynomolgus monkey NaPi2b. In words: flow cytometry, HEK293-6e cells transfected with cynomolgus NaPi2b.
Method: as §1
For experiment [3], the target named is T2, human sodium-dependent phosphate transporter 2B (NaPi2b) (human, UniProt O95436 1-690).
T2 construct: UniProt ID is given as 095436 [sic]; also called hNaPi2b; Hu NaPi2b
T2 sequence: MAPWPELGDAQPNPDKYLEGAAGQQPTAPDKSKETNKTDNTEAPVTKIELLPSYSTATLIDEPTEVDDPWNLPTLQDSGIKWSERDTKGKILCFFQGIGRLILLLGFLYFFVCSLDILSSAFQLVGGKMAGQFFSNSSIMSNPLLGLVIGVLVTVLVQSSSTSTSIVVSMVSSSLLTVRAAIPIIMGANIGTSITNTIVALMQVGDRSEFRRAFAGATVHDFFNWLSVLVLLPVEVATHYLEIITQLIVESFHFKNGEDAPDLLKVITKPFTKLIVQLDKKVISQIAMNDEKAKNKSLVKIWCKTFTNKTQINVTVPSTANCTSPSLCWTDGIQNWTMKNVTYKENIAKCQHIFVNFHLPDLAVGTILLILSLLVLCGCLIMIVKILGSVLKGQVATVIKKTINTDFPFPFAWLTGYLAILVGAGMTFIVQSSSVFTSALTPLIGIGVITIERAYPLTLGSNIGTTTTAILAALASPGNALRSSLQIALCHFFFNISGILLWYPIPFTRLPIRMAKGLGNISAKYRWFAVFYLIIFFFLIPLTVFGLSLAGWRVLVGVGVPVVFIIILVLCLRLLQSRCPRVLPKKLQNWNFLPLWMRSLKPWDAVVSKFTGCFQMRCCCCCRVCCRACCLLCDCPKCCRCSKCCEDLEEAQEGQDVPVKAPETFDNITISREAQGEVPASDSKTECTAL
In words: flow cytometry, HEK293-6e cells transfected with human NaPi2b.
Method: as §1

In experiment [4] the target is T2, human sodium-dependent phosphate …. In words: flow cytometry, IGROV-1 cells (endogenous NaPi2b); apparent Kd.
Method: Briefly, cells were seeded at 50,000 cells/well in conical-bottom 96-well plates and treated with test antibody for 24 hours at 4° C. to prevent internalization. […] Following incubation and washing, fluorescence was detected by flow cytometry on a BD LSRFortessa™ Cell Analyzer (BD Biosciences, Franklin Lake, NJ) with 1,000 minimum events collected per well.
The target is the same in experiment [5]. In words: flow cytometry, HEK293-6e cells transfected with human NaPi2b; apparent Kd.
Method: as §1
In experiment [6] the target is T3, KLH (Sigma-Aldrich, H8283).
T3 construct: Coating of the non-specific ELISA
In words: non-specific ELISA, KLH coated, antibody 100 nM.
Method: NS-ELISA was used to measure the propensity of the antibodies to bind to a range of biomolecules to emulate the undesirable non-specific interactions to biological matrices in vivo as described below.
NS-ELISA was carried out in Corning® 96-well EIA/RIA Easy Wash™ Clear Flat Bottom Polystyrene High Bind Microplate coated overnight at 4° C. with 50 μL of Heparin (Sigma, H3149) diluted with 50 mM sodium carbonate pH 9.6 to a final concentration of 250 μg/mL. The plate was incubated for 2 days at room temperature, wells that were coated with heparin were not covered to allow air dry. […] 50 μL each of insulin, KLH, dsDNA and ssDNA were added to a 96 well plate, followed by the incubation at 37° C. for 2 h. The coating materials were removed, and the plate was blocked with 200 μL of Gibco™ PBS pH7.4, 0.1% Tween®20, and incubated for 1 h at room temperature with shaking at 200 rpm. The plate was washed 3 times with Gibco™ PBS pH7.4, 0.1% Tween 20. 50 μL of each mAb at 100 nM (15 mg/mL) in Gibco™ PBS pH 7.4, 0.1% Tween®20 was added in duplicate to the wells and incubated for 1 h at room temperature with shaking at 200 rpm. […] Plates were incubated for 1 h at room temperature, with shaking at 200 rpm. The plate was washed three times with Gibco™ PBS pH7.4, 0.1% Tween 20, and 100 μL of TMB substrate (Cell Signaling Technology©, 7004P6) added to each well. […] Binding scores were calculated as the ratio of the ELISA signal of the antibody to the signal of a well containing buffer instead of the primary antibody.

Experiment [7] has as its target T4, mouse NaPi2b (mouse, UniProt Q9DBP0 1-697).
T4 construct: also called Ms NaPi2b; CL #13476
T4 sequence: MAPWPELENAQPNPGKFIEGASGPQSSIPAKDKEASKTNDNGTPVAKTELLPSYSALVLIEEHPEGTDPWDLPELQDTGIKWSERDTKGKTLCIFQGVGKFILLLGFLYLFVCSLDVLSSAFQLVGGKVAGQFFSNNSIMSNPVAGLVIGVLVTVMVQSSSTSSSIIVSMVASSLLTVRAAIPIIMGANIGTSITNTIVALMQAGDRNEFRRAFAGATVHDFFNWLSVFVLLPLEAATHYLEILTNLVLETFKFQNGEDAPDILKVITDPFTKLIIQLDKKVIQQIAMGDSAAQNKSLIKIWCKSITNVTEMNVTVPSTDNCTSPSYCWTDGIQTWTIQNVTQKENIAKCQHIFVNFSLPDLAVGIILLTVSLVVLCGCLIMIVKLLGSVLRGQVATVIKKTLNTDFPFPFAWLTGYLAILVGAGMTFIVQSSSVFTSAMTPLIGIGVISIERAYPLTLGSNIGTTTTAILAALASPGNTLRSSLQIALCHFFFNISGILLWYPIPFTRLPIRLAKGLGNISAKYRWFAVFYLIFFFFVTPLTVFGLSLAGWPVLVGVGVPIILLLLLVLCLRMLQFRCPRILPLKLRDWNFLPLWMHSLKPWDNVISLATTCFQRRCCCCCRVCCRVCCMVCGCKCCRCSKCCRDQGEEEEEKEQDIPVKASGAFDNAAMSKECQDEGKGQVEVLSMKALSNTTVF
In words: flow cytometry, HEK293-6e cells transfected with mouse NaPi2b; apparent Kd.
Method: as §1

Experiment [8] concerns the target T2, human sodium-dependent phosphate …. In words: flow cytometry, IGROV-1 cells (endogenous NaPi2b). Further details: unit not given here.
The target in experiment [9] is T5, Construct 6 (NaPi2b del 317-333) (human, UniProt O95436 1-690).
T5 construct: Deletion construct on HEK293-6e cells; also called CL_#29919
T5 sequence: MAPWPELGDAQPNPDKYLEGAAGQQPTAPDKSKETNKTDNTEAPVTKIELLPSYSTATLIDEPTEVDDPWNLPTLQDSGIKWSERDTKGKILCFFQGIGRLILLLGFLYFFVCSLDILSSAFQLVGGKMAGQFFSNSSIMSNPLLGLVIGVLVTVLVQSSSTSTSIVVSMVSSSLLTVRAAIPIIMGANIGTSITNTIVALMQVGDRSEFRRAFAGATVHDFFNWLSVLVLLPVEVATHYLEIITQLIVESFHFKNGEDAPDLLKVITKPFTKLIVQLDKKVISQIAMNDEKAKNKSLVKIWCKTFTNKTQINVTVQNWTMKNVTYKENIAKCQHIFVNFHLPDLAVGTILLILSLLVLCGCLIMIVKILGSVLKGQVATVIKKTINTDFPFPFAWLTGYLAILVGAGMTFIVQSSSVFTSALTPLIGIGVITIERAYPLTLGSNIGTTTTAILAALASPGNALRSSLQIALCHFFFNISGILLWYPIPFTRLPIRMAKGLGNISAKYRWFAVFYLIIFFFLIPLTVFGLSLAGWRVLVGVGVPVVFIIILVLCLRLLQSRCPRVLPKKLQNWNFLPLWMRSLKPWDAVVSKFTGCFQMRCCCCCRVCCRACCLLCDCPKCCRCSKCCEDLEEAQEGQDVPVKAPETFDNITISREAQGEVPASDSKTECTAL
In words: flow cytometry, HEK293-6e cells transfected with Construct 6.
Method: (§2) Following transfection, cells were seeded at 50,000 cells/well in conical-bottom 96-well plates and treated with a serial dilution of test antibody for 24 hours at 4° C. to prevent internalization. Cells were treated with final concentrations of all humanized antibodies of 200, 20, or 2 nM. Cells were treated with final concentrations of the reference anti-NaPi2a rabbit antibody of 50, 5, or 0.5 nM. […] Following incubation and washing, fluorescence was detected by flow cytometry on a BD LSRFortessa™ Cell Analyzer (BD Biosciences, Franklin Lake, NJ) with 1,000 minimum events collected per well. […] Background-subtracted AF647 Mean Fluorescence Intensity (MFI) values were calculated by subtracting the average MFI of three technical replicates of unstained (no primary antibody) cells.

Experiment [10] deals with T6, Construct 7 (NaPi2b del 317-326) (human, UniProt O95436 1-690).
T6 construct: Deletion construct on HEK293-6e cells; also called CL_#29921
T6 sequence: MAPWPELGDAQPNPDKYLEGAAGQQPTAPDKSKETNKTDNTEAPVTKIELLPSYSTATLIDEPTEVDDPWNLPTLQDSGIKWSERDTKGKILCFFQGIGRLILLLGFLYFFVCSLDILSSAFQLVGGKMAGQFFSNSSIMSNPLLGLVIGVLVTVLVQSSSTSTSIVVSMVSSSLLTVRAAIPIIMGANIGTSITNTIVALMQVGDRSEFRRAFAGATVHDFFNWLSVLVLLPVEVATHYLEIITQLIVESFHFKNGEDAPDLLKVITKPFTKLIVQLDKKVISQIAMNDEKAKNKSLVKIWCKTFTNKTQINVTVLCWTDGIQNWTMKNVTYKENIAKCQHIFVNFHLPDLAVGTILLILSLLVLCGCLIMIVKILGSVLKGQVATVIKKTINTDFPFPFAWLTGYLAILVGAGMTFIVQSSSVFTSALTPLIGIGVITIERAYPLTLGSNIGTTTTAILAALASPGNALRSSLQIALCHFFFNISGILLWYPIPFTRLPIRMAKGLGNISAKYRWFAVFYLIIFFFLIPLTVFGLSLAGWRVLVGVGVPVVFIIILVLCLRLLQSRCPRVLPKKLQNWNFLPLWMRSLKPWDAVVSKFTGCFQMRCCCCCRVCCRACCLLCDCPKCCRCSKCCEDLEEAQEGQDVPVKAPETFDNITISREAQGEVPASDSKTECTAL
In words: flow cytometry, HEK293-6e cells transfected with Construct 7.
Method: as §2

Experiment [11] deals with T2, human sodium-dependent phosphate …. In words: flow cytometry on IGROV-1 cells (endogenous NaPi2b), 24 h at 4 C, anti-human IgG Fc AF647, APC-A GeoMean.

B1: v29456 (H1L2) (antibody, human IgG1, kappa)
heavy: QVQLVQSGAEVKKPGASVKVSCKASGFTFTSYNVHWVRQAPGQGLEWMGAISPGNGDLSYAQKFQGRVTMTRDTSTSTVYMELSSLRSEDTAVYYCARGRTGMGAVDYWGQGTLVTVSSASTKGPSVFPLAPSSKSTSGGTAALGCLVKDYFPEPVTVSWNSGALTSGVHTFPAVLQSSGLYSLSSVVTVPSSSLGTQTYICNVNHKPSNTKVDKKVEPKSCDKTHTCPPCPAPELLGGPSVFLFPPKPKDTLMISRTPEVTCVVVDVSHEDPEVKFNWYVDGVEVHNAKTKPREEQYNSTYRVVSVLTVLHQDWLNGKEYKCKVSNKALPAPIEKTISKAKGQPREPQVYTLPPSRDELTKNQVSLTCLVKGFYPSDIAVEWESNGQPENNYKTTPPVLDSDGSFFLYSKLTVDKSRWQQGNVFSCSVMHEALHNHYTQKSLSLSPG
light: DVQMTQSPSSLSASVGDRVTITCRASQDVYSYLNWYQQKPGKAVKLLIYYTSRLQSGVPSRFSGSGSGTDYTLTISSLQPEDFATYYCQQYNIFPWTFGQGTKLEIKRTVAAPSVFIFPPSDEQLKSGTASVVCLLNNFYPREAKVQWKVDNALQSGNSQESVTEQDSKDSTYSLSSTLTLSKADYEKHKVYACEVTHQGLSSPVTKSFNRGEC
notes: Humanized IgG1/kappa; heavy chain ends at G446 (EU); also called humanized antibody variant v29456
As to B1, the Kd in experiment [1] was 3.2 nM; in [4], 1.1 nM; in experiment [5], 5.2 nM; in experiment [7] it was 10.6 nM. Besides, the Bmax in experiment [2] was determined as 2010; in experiment [3], 2540; in [8], 40900. Moreover, in experiment [6], the “NS-ELISA binding score (signal over buffer well)” value was 1.37.

B2: v21995 (palivizumab, anti-RSV negative control) (antibody, human IgG1, kappa, V domains shown)
VH: QVTLRESGPALVKPTQTLTLTCTFSGFSLSTSGMSVGWIRQPPGKALEWLADIWWDDKKDYNPSLKSRLTISKDTSKNQVVLKVTNMDPADTATYYCARSMITNWYFDVWGAGTTVTVSS
VL: DIQMTQSPSTLSASVGDRVTITCKSQLSVGYMHWYQQKPGKAPKLLIYDTSKLASGVPSRFSGSGSGTEFTLTISSLQPDDFATYYCFQGSGYPFTFGGGTKLEIKR
Turning to B2, the binding result in [9], in [10] and in [11] was “no binding (tested: 200 nM)” in each case.
